Patent US8691225B2, “Antibodies against the ectodomain of ErbB3 and uses thereof” (Merrimack Pharmaceuticals, Inc., priority 2007, dated 2014)

Legend:
[1] = tested on: DU145 (a prostate tumor cell line) xenograft tumors; assay: DU145 xenograft combination therapy; format: in vivo, mouse; conditions: Ab #6 300 μg IP every three days; taxol 20 mg/kg IP once per week
Method: In a second experiment, mice bearing DU145 (a prostate tumor cell line) xenograft tumors are prepared by establishing tumors subcutaneously in the flanks of nude mice (Charles River Laboratories). […] Again, tumor size is measured twice a week and measurements are used to calculate tumor volume.

[2] = tested on: phosphorylated ErbB3 (pErbB3) in AdrR ovarian xenografts; assay: ErbB3 phosphorylation in AdrR ovarian xenografts in vivo; parameters: species or system mouse; conditions: pErbB3 in ng/mg of total protein
Method: The samples are pulverized substantially as described in Example 5 supra, with respect to FIG. 8. The BCA assay is performed substantially as set forth in the Materials and Methods section supra, and the ELISA assay is performed substantially as described in Example 5 supra with respect to FIG. 8.

AdrR (ovarian) xenograft = assay: xenograft tumor growth in nude mice; format: in vivo, mouse; conditions: 300 ug every three days (Q3d); p<0.05
Method: (§1) For example, T-cell deficient nu/nu mice (3-4 week old female mice originated at NIH; outbred; albino background) are purchased from Charles River Labs (Wilmington, Mass.) for xenograft studies. AdrR cells for implantation are grown in culture (RPMI media, 10% FBS, L-glutamine and antibiotics, 37° C., 5% CO2) to about 85% confluency before harvesting. Cells are kept on ice until implantation. Mice are implanted via subcutaneous injection with 100 μl AdrR cells (6×10^6 cells in PBS) on the right flank and allowed to recover while being monitored for initial tumor growth.
(§2) Tumors are measured (length by width) by digital caliper and the mice are dosed with IgG2a (Sigma, M7769-5MG) by intravenous injection.
(§3) Final tumor measurements (L×W) are taken, the mice are euthanized by CO2 asphyxiation and tumors are excised, snap frozen in liquid nitrogen, and are stored at −80° C. (for biochemical analysis). Final tumor measurements are analyzed and graphed by tumor area and tumor volume, as described in Burtrum et al., supra. The data are also analyzed by “normalized” and “non-normalized” means for both tumor volume and tumor area. For the “normalization” of the data, at each time point of measurement, each tumor in each group is divided by the initial tumor size determined by caliper measurement.

[3] = tested on: OvCAR8 (ovarian) xenograft; assay: xenograft tumor growth in nude mice; format: in vivo, mouse
Method: as §1, §2, §3

[4] = target: T1, heregulin binding to ErbB3 on MALME-3M cells (Homo sapiens, UniProt P21860); assay: biotinylated heregulin binding to MALME3M cells by FACS; format: cell-based; conditions: 5 μM antibody, 20 nM heregulin EGF
T1 construct: ErbB3 expressed on MALME-3M melanoma cells; host or cells: MALME-3M melanoma cells
Method: After 30 minutes, 50 μl of 40 nM biotinylated heregulin EGF is added to the cells and incubated for another 10 minutes on ice. This yields a final concentration of 5 μM antibody and 20 nM heregulin EGF. Cells are then washed twice with 500 μl BD stain buffer and incubated with 100 μl of a 1:200 dilution of streptavidin-PE (PE=phycoerythrin) (Invitrogen) in BD stain buffer for 45 minutes. Finally, cells are washed twice, resuspended in 300 μl of BD stain buffer and analyzed in a FACSCALIBUR flow cytometer. As a positive control, 1×10^5 MALME3M cells are incubated with 20 nM heregulin EGF for 10 minutes on ice, washed twice and incubated with a 1:200 dilution of streptavidin-PE for 45 minutes. In order to assess background staining from the streptavidin-PE conjugate, 1×10^5 MALME3M cells are incubated with 100 μl of a 1:200 dilution of streptavidin-PE only for 45 minutes.

OVCAR8 spheroids = assay: spheroid growth assay; format: cell-based, human; conditions: OVCAR8, 25 μg/ml on days 1 and 4
Method: Subconfluent cells are trypsinized, counted, and resuspended in filtered medium. The cell concentration is adjusted to 100,000 cells/ml, and one 20 ul drop (containing 2000 cells) is added to each ring on the underside of the lid of a 96-well plate. The lids with these hanging droplets are then placed back on the original 96-well plate, which contained 100 ul of PBS in each well to maintain moisture. Four days after initial plating, the hanging droplets containing the spheroids are replated into new 96-well plates. This replating involves transferring the lid containing the hanging droplets to a fresh 1% agarose/RPMI-coated 96-well plate that contains 150 ul of medium per well. The plate and lid are then centrifuged together at 500 rpm for 1 minute to transfer the spheroid-containing drops from the lids to the wells. Plates are then further incubated at 37° C. in a humidified CO2 incubator. Spheroids are photographed in an inverted phase contrast microscope. A micrometer scale is also photographed at the same magnification to determine spheroid size. The diameter of the spheroids is determined using METAMORPH image analysis software (MDS Analytical Technologies).
Multicellular tumor spheroids are generated as before.

[5] = tested on: Colo357 (pancreatic) xenograft; assay: xenograft tumor growth in nude mice; format: in vivo, mouse
[6] = 300 ug every three days (Q3d), p<0.05

B1: Ab #6: human anti-ErbB3 antibody from Fab-phage library, CDRs SEQ ID NOs:7-12; used as IgG1 and IgG2 isotypes; in phase I trials as MM-121 (antibody, V domains shown)
VH: EVQLLESGGGLVQPGGSLRLSCAASGFTFSHYVMAWVRQAPGKGLEWVSSISSSGGWTLYADSVKGRFTISRDNSKNTLYLQMNSLRAEDTAVYYCTRGLKMATIFDYWGQGTLVTVSS
VL: QSALTQPASVSGSPGQSITISCTGTSSDVGSYNVVSWYQQHPGKAPKLIIYEVSQRPSGVSNRFSGSKSGNTASLTISGLQTEDEADYYCCSYAGSSIFVIFGGGTKVTVL
- inhibition of tumor growth (tumor volume) [1]: inhibited tumor growth
- inhibition of ErbB3 phosphorylation in vivo [2]: significantly inhibited ErbB3 phosphorylation
- inhibition of tumor growth (AdrR (ovarian) xenograft): significant inhibition of tumor growth
- inhibition of tumor growth [3, 6]: significant inhibition of tumor growth
- inhibition of tumor growth ([3]; 1500 ug Q3d versus 600 ug): did not result in increased efficacy
- inhibition of heregulin binding to ErbB3 [4]: able to inhibit heregulin binding to ErbB3
- decrease in spheroid area (OVCAR8 spheroids): 30-40%
- inhibition of tumor growth [5, 6]: significant inhibition of tumor growth
- inhibition of tumor growth ([5]; 600 ug Q3d versus 300 ug): further elevated
- inhibition of tumor growth ([5]; 1500 ug Q3d versus 600 ug): did not result in increased efficacy
